# Measurements from patent US20180000963A1 (HELIX BIOPHARMA, published 2018).
# Where “and” joins values, the source holds several entries; their conditions need not be identical. Identical values can stand only once.
# B1: AFAIKL2 antibody (single-domain camelid antibody fragment) (VHH)
# VHH: DVQLQASGGGVVQPGGSLRLSCAAHDPIFDKNLMGWGRQAPGKQREYVATISGSGGTNYASSVEGRFTISRDNAKKTVYLQMNDLKPEDTAVYYCNSAFAIWGQGTQVTVSS
# notes: Expressed in E. coli BL21 (DE3) pT7-7; also called AFAIKL2-tag; native single domain antibody
# B2: CEACAM6 (carcinoembryonic antigen-related cell adhesion molecule 6) on the surface of human tumor cell lines (receptor)
# chain: KLTIESTPFNVAEGKEVLLLAHNLPQNRIGYSWYKGERVDGNSLIVGYVIGTQQATPGPAYSGRETIYPNASLLIQNVTQNDTGFYTLQVIKSDLVNEEATGQFHVYPELPKPSISSNNSNPVEDKDAVAFTCEPEVQNTTYLWWVNGQSLPVSPRLQLSNGNMTLTLLSVKRNDAGSYECEIQNPASANRSDPVTLNVLYGPDVPTISPSKANYRPGENLNLSCHAASNPPAQYSWFINGTFQQSTQELFIPNITVNNSGSYMCQAHNSATGLNRTTVTMITVSG
# notes: whole, on cells; also called CEACAM6 antigen; NCA
# Key:
# [1] = target: B2; experiment: cell-based ECL competition; unlabelled competitor against L-DOS47-tag (1 µg/mL) on BxPC-3 cells
# [2] = target: T1, L-DOS47 (anti-CEACAM6-urease conjugate); AFAIKL2 antibody conjugated to Jack bean urease through the SIAB … (Jack bean (Canavalia ensiformis), UniProt P07374 1-840, primary amines linked through the SIAB linkage to urease cysteines); activation sites Lys76, Met1 (N-terminal amine), Lys44, Lys32; cysteine thiols linked through the SIAB linkage to AFAIKL2; …); experiment: whole-cell binding assay, ZR-75-30 cells
# T1 construct: Chemical conjugate, not a fusion; Hexameric urease (six ~91 kDa subunits) carries 0-4 AFAIKL2 per subunit; In the ECL assays it was labelled with ruthenium-NHS-ester (Sulfo-Tag); also called antibody-urease conjugate; AFAIKL2-urease
# T1 sequence (P07374 whole entry, chain 1 of 2, the tested form may be a part): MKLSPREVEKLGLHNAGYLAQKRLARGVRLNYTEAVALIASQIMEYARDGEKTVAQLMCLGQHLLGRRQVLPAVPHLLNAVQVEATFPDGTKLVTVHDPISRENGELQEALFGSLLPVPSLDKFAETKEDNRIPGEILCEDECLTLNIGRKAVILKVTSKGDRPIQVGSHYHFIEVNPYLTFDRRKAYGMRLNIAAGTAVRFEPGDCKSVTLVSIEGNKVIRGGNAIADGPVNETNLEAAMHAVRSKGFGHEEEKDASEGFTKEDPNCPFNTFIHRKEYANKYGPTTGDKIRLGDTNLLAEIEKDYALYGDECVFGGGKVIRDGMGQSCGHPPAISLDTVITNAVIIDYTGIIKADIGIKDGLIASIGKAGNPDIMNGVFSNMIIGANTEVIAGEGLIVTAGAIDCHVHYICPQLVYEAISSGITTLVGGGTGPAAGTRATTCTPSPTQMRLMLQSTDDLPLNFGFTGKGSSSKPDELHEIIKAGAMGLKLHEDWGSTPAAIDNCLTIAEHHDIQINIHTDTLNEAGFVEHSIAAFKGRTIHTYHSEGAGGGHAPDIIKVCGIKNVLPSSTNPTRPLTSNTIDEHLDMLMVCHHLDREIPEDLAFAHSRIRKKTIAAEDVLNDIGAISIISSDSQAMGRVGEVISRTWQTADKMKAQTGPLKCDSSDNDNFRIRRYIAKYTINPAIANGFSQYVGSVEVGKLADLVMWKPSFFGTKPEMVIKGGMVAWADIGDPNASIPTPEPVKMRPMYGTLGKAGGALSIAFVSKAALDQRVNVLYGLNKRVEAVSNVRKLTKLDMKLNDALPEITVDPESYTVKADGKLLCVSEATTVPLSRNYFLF
# T1 sequence (VHH, as listed by the source limits assumed, chain 2 of 2): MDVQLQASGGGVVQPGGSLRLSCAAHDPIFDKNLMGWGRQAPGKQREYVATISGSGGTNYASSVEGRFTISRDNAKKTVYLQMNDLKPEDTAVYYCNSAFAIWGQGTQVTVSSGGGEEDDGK
# [3] = target: T2, DOS47 (Jack bean urease, unconjugated) (Jack bean (Canavalia ensiformis), UniProt P07374 1-840); experiment: whole-cell binding assay (ammonia read-out) on BxPC-3, Capan-1, ZR-75-30, LS174T and MDA-MB231 cells
# T2 construct: Purified from jack bean; hexamer of six identical subunits; also called HPU; high purity urease
# T2 sequence (P07374 whole entry): as the sequence (P07374 whole entry, chain 1 of 2, the tested form may be a part) above
Binder,IC50 [1],binding result [2],binding result [3]
B1,~20 µg/mL and ~1.55 µM,,
B2,,binds,no binding
